Measurements from PMC5383425, “Differential CLE peptide perception by plant receptors implicated from structural and functional analyses of TDIF-TDR interactions” (PLoS ONE, 2017).
Residue numbers refer to the chain shown, from its start. Square brackets hold non-standard residues; d marks the D form. Ends that are not written are not given here. Hyp = O=C(O)[C@@H]1C[C@@H](O)CN1

Experiments:
Experiment in all cases: ITC; 0.5–1 mM peptide titrated into 10–40 μM ecdTDR; 25°C; 10 mM sodium citrate, 100 mM NaCl, pH 5.5; fitted to one set of binding sites; MicroCal Auto-iTC200
Conditions in all cases: both partners purified
ecdTDR S187A mutant = biological target: T1, ecdTDR S187A mutant (Arabidopsis thaliana, UniProt Q9FII5 30-642, S187A)
T1 construct: TDR/PXY of A. thaliana, extracellular domain, residues 30-642; source: High Five insect cells (baculovirus), secreted, purified as the wild type (Ni-NTA, size-exclusion chromatography)
T1 sequence (looked up): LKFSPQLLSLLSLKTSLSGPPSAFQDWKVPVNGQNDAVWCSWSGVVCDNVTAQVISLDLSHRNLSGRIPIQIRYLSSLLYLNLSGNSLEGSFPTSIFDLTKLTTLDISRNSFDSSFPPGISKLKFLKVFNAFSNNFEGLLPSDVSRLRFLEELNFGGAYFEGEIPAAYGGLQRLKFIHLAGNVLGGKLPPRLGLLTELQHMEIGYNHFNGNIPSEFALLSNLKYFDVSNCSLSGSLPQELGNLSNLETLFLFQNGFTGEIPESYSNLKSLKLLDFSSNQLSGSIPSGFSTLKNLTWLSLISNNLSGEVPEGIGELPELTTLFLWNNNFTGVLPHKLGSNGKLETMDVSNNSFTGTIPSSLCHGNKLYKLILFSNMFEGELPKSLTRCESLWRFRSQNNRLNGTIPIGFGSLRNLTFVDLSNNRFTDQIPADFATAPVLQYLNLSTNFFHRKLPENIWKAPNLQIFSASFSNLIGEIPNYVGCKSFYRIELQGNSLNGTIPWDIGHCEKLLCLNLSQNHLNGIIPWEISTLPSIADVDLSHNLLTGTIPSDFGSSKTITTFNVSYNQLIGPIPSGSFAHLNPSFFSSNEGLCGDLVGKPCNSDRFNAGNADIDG

[1] = biological target: T2, ecdTDR Y253 alanine mutant (Arabidopsis thaliana, UniProt Q9FII5 30-642, alanine substitution of Y253)
T2 construct: TDR/PXY of A. thaliana, extracellular domain, residues 30-642; The text says only 'mutational studies' of Y253; source: High Five insect cells (baculovirus), secreted, purified as the wild type (Ni-NTA, size-exclusion chromatography)
T2 sequence (looked up): T1 sequence (looked up) with A158S, Y224A

ecdTDR S305A mutant = biological target: T3, ecdTDR S305A mutant (Arabidopsis thaliana, UniProt Q9FII5 30-642, S305A)
T3 construct: TDR/PXY of A. thaliana, extracellular domain, residues 30-642; also called alanine substitution mutation of TDR-S305; source: High Five insect cells (baculovirus), secreted, purified as the wild type (Ni-NTA, size-exclusion chromatography)
T3 sequence (looked up): T1 sequence (looked up) with A158S, S276A

B1: Tracheary Element Differentiation Inhibitory Factor (TDIF) peptide (peptide)
peptide: HEV[Hyp]SG[Hyp]NPISN
notes: TDIF, the 12-residue CLE peptide processed from CLE41 and CLE44 of A. thaliana; printed as HEV(Hyp)SG(Hyp)NPISN; numbers count on: the 12-residue peptide; CLE44 encodes the same peptide; also called wild type TDIF; wtTDIF; source: synthetic peptide (peptide 2.0)
For B1, the binding result (ecdTDR S187A mutant) was “binds”, the binding result [1] was “binds” and the “fold lower binding than wild-type ecdTDR” value (ecdTDR S305A mutant) was 4.4 fold.
